B1: Recombinant DC-SIGN/CD209 (receptor)
chain: QVSKVPSSISQEQSRQDAIYQNLTQLKAAVGELSEKSKLQEIYQELTQLKAAVGELPEKSKLQEIYQELTRLKAAVGELPEKSKLQEIYQELTWLKAAVGELPEKSKMQEIYQELTRLKAAVGELPEKSKQQEIYQELTRLKAAVGELPEKSKQQEIYQELTRLKAAVGELPEKSKQQEIYQELTQLKAAVERLCHPCPWEWTFFQGNCYFMSNSQRNWHDSITACKEVGAQLVVIKSAEEQNFLQLQSSRSNRFTWMGLSDLNQEGTWQWVDGSPLLPSFKQYWNRGEPNNVGEEDCAEFSGNGWNDDKCNLAKFWICKKSAASCSRDEEQFLSPAPATPNPPPA
B2: Recombinant L-SIGN/CD299 (receptor)
chain: QVSKVPSSLSQEQSEQDAIYQNLTQLKAAVGELSEKSKLQEIYQELTQLKAAVGELPEKSKLQEIYQELTRLKAAVGELPEKSKLQEIYQELTRLKAAVGELPEKSKLQEIYQELTRLKAAVGELPEKSKLQEIYQELTELKAAVGELPEKSKLQEIYQELTQLKAAVGELPDQSKQQQIYQELTDLKTAFERLCRHCPKDWTFFQGNCYFMSNSQRNWHDSVTACQEVRAQLVVIKTAEEQNFLQLQTSRSNRFSWMGLSDLNQEGTWQWVDGSPLSPSFQRYWNSGEPNNSGNEDCAEFSGSGWNDNRCDVDNYWICKKPAACFRDE

Biological target: Recombinant SARS-CoV-2 S1 (SARS-CoV-2)
Assay: MST

Row | Binder | Kd
1 | B1 | 3.76 nM
2 | B2 | 3.27 nM

— paper PMC8582233 (2021)
